According to PMC3923439, “Anti-inflammatory properties of a novel peptide interleukin 1 receptor antagonist” (Journal of Neuroinflammation, 2014):
No end group written: not given here.

T1: recombinant ectodomain of IL-1 receptor type I (IL-1RI) (UniProt P14778 18-336)
T1 construct: interleukin 1 receptor type I, ectodomain; No catalogue number, limits or tag are printed for the bought protein; also called sIL-1RI; soluble IL-1 receptor type I; source: bought: R&D Systems
T1 sequence (looked up): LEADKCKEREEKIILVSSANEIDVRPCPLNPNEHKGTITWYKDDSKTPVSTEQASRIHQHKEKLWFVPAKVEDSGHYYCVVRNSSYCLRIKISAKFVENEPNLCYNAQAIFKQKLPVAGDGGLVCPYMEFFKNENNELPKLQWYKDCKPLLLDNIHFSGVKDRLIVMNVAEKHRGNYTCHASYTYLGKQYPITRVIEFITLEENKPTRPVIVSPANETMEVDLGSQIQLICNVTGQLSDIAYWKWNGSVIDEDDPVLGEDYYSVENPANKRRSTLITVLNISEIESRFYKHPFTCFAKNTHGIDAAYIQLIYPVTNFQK

B1: Ilantide-t (peptide)
peptide: SGRKSSKMQA
modifications: also: dendrimer of four monomers coupled to a lysine backbone
notes: ten residues from the N terminus of human IL-1 receptor antagonist (IL-1Ra); Four copies of the peptide on a lysine backbone; also called IL-1 antagonistic peptide (dendrimer form); source: synthetic peptide; bought: Schafer-N; further purified by gel filtration (Sephadex G-10)

Columns and labels:
[1] = tested on: AMJ2-C8 macrophages; assay: TNF-α secretion from IL-1β-activated macrophages (L929 bioassay); format: cell-based, mouse; settings: 1.2 pM IL-1β, 24 hours; TNF-α by L929 survival with actinomycin D; hydrocortisone at 100 μM
Procedure: A murine alveolar macrophage cell line, AMJ2-C8 (American Type Culture Collection, Borås, Sweden), was routinely grown at 37°C with 5% CO2 in DMEM supplemented with 5% (vol/vol) FCS, 0.5% (v/v) 2-[4-(2-hydroxyethyl)piperazin-1-yl]ethanesulfonic acid (HEPES) (Gibco BRL), 2 mM GlutaMAX, 100 U/ml penicillin and 100 μg/ml streptomycin.
AMJ2-C8 macrophages were seeded into six-well multidishes at a density of 2.5 × 10^5 cells/well, and sIL-1RI, IL-1Ra or various concentrations of Ilantide were added to the cultures. Treatment with 100 μM hydrocortisone (Sigma-Aldrich, Brøndby, Denmark) was used as a positive control. After 10-minute incubation at 37°C, 1.2 pM IL-1β or IFN-γ (R&D Systems) was added to activate the macrophages. L929 cells were seeded onto a 96-well plate (Nunc, Roskilde, Denmark) at a density 0.2 × 10^2 cells/ml. Both cell cultures were incubated for 24 hours at 37°C. Conditioned medium from macrophages was collected and added to the L929 cell cultures together with actinomycin D (0.6 μg/well; Sigma-Aldrich). TNF-α is known to induce classic apoptosis in L929 cells in the presence of actinomycin D [12]. After 24-hour incubation at 37°C, 20 μl of 3-(4,5-dimethylthiazol-2-yl)-5-(3-carboxymethoxyphenyl)-2-(4-sulfophenyl)-2H-tetrazolium (Promega, Madison, WI, USA) were added to each well and incubated at 37°C in the dark for 45 minutes, then measured in an ELISA reader at 490 nm. To calculate the amount of TNF-α in the conditioned medium, fibroblasts were treated with standard concentrations of TNF-α (R&D Systems).

[2] = biological target: T1, recombinant ectodomain of IL-1 receptor …; assay: SPR; Biacore 2000; about 2,500 to 3,000 RU of Ilantide-t, IL-1β or IL-1Ra immobilised on a CM4 sensor chip; IL-1RI ectodomain (or NCAM Ig1-Ig2 as negative control) injected; 25°C, 10 mM sodium phosphate pH 7.4, 150 mM NaCl; apparent Kd; settings: both partners purified

Molecule	Inhibition of IL-1β-induced TNF-α secretion in macrophages [1]	Kd [2] [nM]	koff [2] [s⁻¹]	kon [2] [M⁻¹ s⁻¹]
C[C@]12CCC(=O)C=C1CC[C@@H]1[C@@H]2[C@@H](O)C[C@@]2(C)[C@H]1CC[C@]2(O)C(=O)CO [hydrocortisone, reference compound]	completely inhibited			
B1		27.5	0.00269	184000
